Assay results reported in a protein production outcome set (Wang et al. 2014).

Assay: label from the status in PepcDB records

**Q.** For “MSLLKNSSYILTLLSLFGFLLTWQRSAFSLFFLIPIFLTLFWEFFLFLKLRKNIIKEATLIKGSLFYRISMGDFYLYIFSFFLAIFGLVSLFLNFLNLEKIDFVFIFIILPLLMIFLKKELHLQFIDNAYNDFRIVVIASFFTALFYAFYGLFFTYNELLNLELFSRKIIAYKSASFVYFDFLSEFLHFVSNLKFFIFSYFGYLGFRALNFIFDFFNFFMFCSLLAFVFNFVLKIKIKIIVLFLCFIMVLGNYFLKEQRNNALKSEQEQILLWMNNFNFLKDNNLSLIQKEKDLFEKDLKDLREIFKKNAFEIGIWWFSKEKEDLEKRINESLK”, which protein production is on record?
**A.** Its protein production is “failed”.

**Q.** Which protein production does the source give for “MSLLSLLIALAADRSLSAKVWQFNFYYQHYHHFFSKNFTAKQGTTASAVFIILPVIATYLLLDVIDNSVLQLLFSTVILIVCFGCTTTRKSYKSYLHSAFRGEETTTEMHHEQLLSDKNLPEMGFGQALIWLNYRYYIAIMLFFTVFGAAGAVFYRLLTTVIEHKKAKCMASAAENKAQAEVSSVDESDIESEEHHQAVHEGNVAPNIMNGCQNHHDVLFWLDWLPVRIASFGYMFVGHFSKAMPVWLESLFDSQKPTHQVLIDVAEKSEDLLVNENDCTAEPCLLVRLAKRNVLLVLAVISILTLSGLLN” here?
**A.** The protein production was “failed”.

**Q.** With “MSLMIKVEDMMTRHPHTLLRTHTLNDAKHLMEALDIRHVPIVDANKKLLGIVSQRDLLAAQESSLQRSAQGDSLAFETPLFEVMHTDVTSVAPQAGLKESAIYMQKHKIGCLPVVAKDVLVGIITDSDFVTIAINLLELQEESEPDELDEEQEGHHHHHH” as the sequence, how does the protein production read?
**A.** The protein production was “not failed”.

**Q.** For “MSLNGITKYVEKLTFFNIQSGKQVEFNRDEKVILSNVPFIQQLPELDRGCEVTSLAMMLQYAGITVDKMKLANEIKKVDFMNDGVRGNPNEGFVGNIYTFSESGYGVYHGPLFQLAKKYLPNKAVDLTGKSIEELYKSVKAGQPVVIITNATFAPLDEDEFTTWETNNGDVSITYNEHCVVLIGYDQESVYIRDPLKDSLDVKVPREKFEQAWVQMGSQAISYVKRSKEGHHHHHH”, which protein production is on record?
**A.** Its protein production is “not failed”.

**Q.** With “MSLNGNGSIELKGTVEEVWSKLMDPSILSKCIMGCKSLELIGEDKYKADLQIGIAAVKGKYDAIIEVTDIKPPYHYKLLVNGEGGPGFVNAEGVIDLTPINDECTQLTYTYSAEVGGKVAAIGQRMLGGVAKLLISDFFKKIQKEIAKSKQEASEGHHHHHH” as the sequence, how does the protein production read?
**A.** The protein production was “not failed”.

**Q.** For “MSLNKQDGENTLQHEKSSSFGYWCSPSPEQLERLSLKQLAAVSNFVIGRRGYGCITFQHDVDLTAFTKSFREELFGKIVIFRSSKTVEVYPDEATKPMIGHGLNVPAIITLENVYPVDKKTKKPMKDTTKFAEFQVFDRKLRSMREMNYISYNPFGGTWTFKVNHFEGHHHHHH”, which protein production is on record?
**A.** Its protein production is “not failed”.

**Q.** For “MSLNRRELLERISEYQFACIELNLYLDNNPRDKKALDSYNRYCDKFTQAVCDYESKYGALTNFGYESSEYPWSWISEPWPWDKSFYKLEHHHHHH”, which protein production is on record?
**A.** Its protein production is “not failed”.

**Q.** For “MSLNRVFIVDDDTLTCNLLKTIVEPIFGNVEAFQHPRAFLTLSLNKQDIIILDLMMPDMDGIEVIRHLAEHKSPASLILISGYDSGVLHSAETLALSCGLNVINTFTKPINTEVLTCFLTSLSNRQAEGHHHHHH”, which protein production is on record?
**A.** Its protein production is “not failed”.

**Q.** For “MSLNSEAKSRIACDIDFDRDGRQAGYARAPLSRNNSGWGTVEIPITVVKNGSGPTVLLTGGVHGDEYEGQIAISDLARRLRPEEVQGRVIMLPAVNMPAIQSDTRLSPVDGRDINRCFPGDPRGTFSQMLAHFLDSVILPMADISVDMHTAGHSYDSTPSTNMHYLADPALRARTLAAAEAFGAPHNVVFGGVDEGSTFTSCVERRGIVSLGTELGGWGRVNIEGVRIGKRGILNVLKHMGVIEGTPETAQRGGAAGTRHMMVREADAYVMAPRTGLFEPTHYVGEEVRTGETAGWIHFVEDVDTAPLELLYRRDGIVWFGAGPGRVTRGDAVAVVMEDYNDTWPQEGHHHHHH”, which protein production is on record?
**A.** The protein production was “not failed”.

**Q.** With “MSLPPILTSQIGPDSIELRLLVAADLEYFNGHFPEQAVLPGVTQLDWAVRLGCEHFGYSAAVANLEVLKFQQLILPGQEVTLVISHNATKEKLTFAYSDGDHRYASGRISFASKQDDGLEHHHHHH” as the sequence, how does the protein production read?
**A.** Its protein production is “failed”.

**Q.** For “MSLPPSRPETLSIPEALHRAHAHWSAGQAAQAELLCQRVLAAWPGQADALHLLGLMAHAYGHLDLAIAHLRQACLAPRAPAAYSSNLAEMYRQKGLLAEAEDAARRAVAMDPALVSGWNNLGIVLQEAGKFAESLDCLERVILLQPDGAQAHNNLANTLRRLERLERAESHYRQALELDPAYAEAHSNLAFLLSAQGRHDEAAAAAQHAIELSPRLVDAYLNLAEAEMGRHRHEAALRVLDTLSTFAPQHPAALTARANVLKRVERLDEALAVARQAVVLAPRSAEAHHALAMALQTLGQTDEALPHFEQAARLPGAVAEEALVGRATLLMEAGRRDAARAAFDQALEQFPGSVQALAGRADARTFTAGDPDIAALEACLAEGERRSLRDRISAHFALGKAYLDLQDPARAFHHLDAGNRQKRSTFTYDGAASRRWMERIAEAFPPERHDPLHATGEPSALPVFIVGMPRSGTTLIEQIVSSHPQVMGAGELSALRLVVEGSGLFPDGMQRLAGEARGALFRQLGQAYLSRVAPLAQGRARLVDKMPSNFLYARLIPLILPGARIIHARRDPVDTCLSCYTKLFAGEQQFAYDQAELGALYRGYARLMAHWRAVLPPGCFIEVDYEAVVDDLEGEARRLIDFLDLPWNPACLHFHDNRRVVRTASVNQVRQPIYTTSKGRWQAYADYLGPLLEALGVEAP”, which protein production is on record?
**A.** The protein production was “failed”.

**Q.** Which protein production does the source give for “MSLQLDEYLRQLAPSMTQWRRDFHLHAESGWLEFRTASKVADILDGLGYQLALGRDVIDADSRMGLPDEETLARAFERAREQGAPERWLPAFEGGFAGVVATLDTGRPGPTLAFRVDMDALDLNEQHDDSHRPHRDHFASCNAGMMHACGHDGHTAIGLGLAHVLKQYAAQLNGVIKLIFQPAEEGTRGARAMVAAGVVDDVDYFTAIHIGTGVPAGTVVCGGDNFMATTKFDVQFSGVAAHAGGKPEDGRNALLAAAQAALGLHAIPPHSAGASRVNVGVMQAGTGRNVVPSSALLKVETRGESEAINQYVFERAQHVVAGAAAMYEARYELRMMGAATASAPSPAWVDYLREQAARVPGVQQAVDRIAAPAGSEDATLMMARVQARGGLASYMIFGTELSAGHHNEKFDFDESVMAVAVETLARVALNFPWQRGVEGHHHHHH” here?
**A.** Its protein production is “not failed”.

**Q.** Which protein production does the source give for “MSLQRFTNRTIVVAGAGRDIGRACAIRFAQEGANVVLTYNGAAEGAATAVAEIEKLGRSALAIKADLTNAAEVEAAISAAADKFGEIHGLVHVAGGLIARKTIAEMDEAFWHQVLDVNLTSLFLTAKTALPKMAKGGAIVTFSSQAGRDGGGPGALAYATSKGAVMTFTRGLAKEVGPKIRVNAVCPGMISTTFHDTFTKPEVRERVAGATSLKREGSSEDVAGLVAFLASDDAAYVTGACYDINGGVLFSEGHHHHHH” here?
**A.** Its protein production is “not failed”.

**Q.** For “MSLQRLLQHSSNGNLADFCAGPAYSSYSTLTGSLTMDDNRRIQMLADTVATLPRGRKQLALTRSSSLSDFSWSQRKLVTVEKQDNETFGFEIQSYRPQNQNACSSEMFTLICKIQEDSPAHCAGLQAGDVLANINGVSTEGFTYKQVVDLIRSSGNLLTIETLNGTMILKRTELEAKLQVLKQTLKQKWVEYRSLQLQEHRLLHGDAANCPSLENMDLDELSLFGPLPGPGPALVDRNRLSSESSCKSWLSSMTMDSEDGYQTCVSEDSSRGAFSRQTSTDDECFIPKEGDDFLRRSSSRRNRSISNTSSGSMSPLWEGNLSSMFGTLPRKSRKGSVRKQLLKFIPGLHRAVEEEESRF”, which protein production is on record?
**A.** Its protein production is “not failed”.

**Q.** For “MSLQSQPIALELIVRNHPGVMTHICGLFARRAFNVDGILCLPMKNSDKSRIWLLVQKDERLMQMVSQVEKLEDVKEVRFSDDLRVFEQMESYLN”, which protein production is on record?
**A.** Its protein production is “not failed”.

**Q.** Which protein production does the source give for “MSLQVEGLSINLATIREQCGFAEAVDICLKHGITAIAPWRDQVAAIGLGEAGRIVRANGLKLTGLCRGGFFPAPDASGREKAIDDNRRAVDEAAELGADCLVLVAGGLPGGSKNIDAARRMVVEGIAAVLPHARAAGVPLAIEPLHPMYAADRACVNTLGQALDICETLGPGVGVAIDVYHVWWDPDLANQIARAGKMKAILAHHICDWLVPTKDMLTDRGMMGDGVIDLKGIRRRIEAAGFHGAQEVEIFSADNWWKRPADEVIATCVERYRNEGHHHHHH” here?
**A.** Its protein production is “not failed”.

**Q.** For “MSLREVALKILIVEDDTDAREWLSTIISNHFPEVWSAGDGEEGERLFGLHAPDVIITDIRMPKLGGLEMLDRIKAGGAKPYVIVISAFSEMKYFIKAIELGVHLFLPKPIEPGRLMETLEDFRHIKLAKEGHHHHHH”, which protein production is on record?
**A.** The protein production was “not failed”.

**Q.** For “MSLRGSQLGTSRGLMLGGIDLAPVLMVLGLLLSGLGLSMLAPALVDLVVENRDWRAFLGSSVITLFCGMMLTLANWRMPLRFNIRQGFLMTALAWLTMSLFGSMPFMLATTGLDFAGAFFESVSGLTTTGATVISGLEHQPPGILFWRCLLHWIGGIGIIGMAIALLPALRVGGMQLFRTESSDTSEKGMNRIGELGLAITAVYLTLTVVIALGYIAVGMSVFDAICHAFGTVSTGGFSNWDTSLGHLDAAGLWMSTVGMMLGAMPFVLYVQVARGRPMDVVRDPQVQALTGFLVACWLVMALWQSLENGRPFLDALTASAFNITSVVTTTGYASEDYTLWGGFPQLFFFMITFAGGCTGSTSGGIKMFRYQVAYKVLSANIRRRYMPNAVIVSTYGGRAIDEDVAVSVVLFFFATGATTAIIALALTMVGLDWVTALTGTAAAIANVGPGLGTIVGPAGNYATLPDSAKWLLSLAMLMGRLEFFTLLVLFSRDFWKS”, which protein production is on record?
**A.** The protein production was “failed”.

**Q.** Which protein production does the source give for “MSLSALESSSRFEVRYFFERALECYKPFSDTVLLLPCTARKPYLTSRTHRALRSKVKVNVNEIIISSPLVVPREFELLYPAVNYDTPVTGHWSEEEVSFVAGWLKRFIEKGGFRKVVAHVTGGYRKVVERVEDEVEAEVVYTAEKDVLSDESIERLKQEIESKGKVDLYRRILEHMLSYQFGITWSGKVAGRYPELELLEGKKRLARVDRIYGMLDIYEKIAAYLLEKNIYTVEIGDFEVKGTIFAGGVLRADEKIRPNDVVVFHNSRIFGVGLAAMSGKEMAGSEKGIAINVKRKFSEGHHHHHH” here?
**A.** The protein production was “not failed”.

**Q.** With “MSLSASLGATRFRPDLLSLDDLDEAQLHALLTLAHQLKRGERVANLHGKVLGLVFLKASTRTRVSFTVAMYQLGGQVIDLSPSNTQVGRGEPVRDTARVLGRYVDGLAIRTFAQTELEEYAHYAGIPVINALTDHEHPCQVVADLLTIRENFGRLAGLKLAYVGDGNNVAHSLLLGCAKVGMSIAVATPEGFTPDPAVSARASEIAGRTGAEVQILRDPFEAARGAHILYTDVWTSMGQEAETQHRLQLFEQYQINAALLNCAAAEAIVLHCLPAHRGEEITDEVMEGPRSRIWDEAENRLHAQKAVLAALMGGREGHHHHHH” as the sequence, how does the protein production read?
**A.** Its protein production is “not failed”.

**Q.** Which protein production does the source give for “MSLSDRVKKIESFTLTLPRETPYLGKPRPGEEPNGRGYLVRKANRTVYPTFDRSVLVRIETENGAVGWGETYGLVAPRATMEIIDDLLADFTIGRDPFDAAAIHDDLYDLMRVRGYTGGFYVDALAAIDIALWDLAGKLAGLPVCKLLGGQRRDRIAAYISGLPEDTRAKRAELAAAWQAKGFSSFKFASPVADDGVAKEMEILRERLGPAVRIACDMHWAHTASEAVALIKAMEPHGLWFAEAPVRTEDIDGLARVAASVSTAIAVGEEWRTVHDMVPRVARRALAIVQPEMGHKGITQFMRIGAYAHVHHIKVIPHATIGAGIFLAASLQASAALANVDCHEFQHSIFEPNRRLLVGDMDCLNGEYVVPTGPGLGVEPSKEAQGLLKKHEGHHHHHH” here?
**A.** Its protein production is “not failed”.

**Q.** With “MSLSELSPCHVRSGRIMTVDGPIPSSALGHTLMHEHLQNDCRCWWNPPQEPERQYLAEAPISIEILSELRQDPFVNKHNIALDDLDLAIAEVKQFAAVGGRSIVDPTCRGIGRDPVKLRRISAETGVQVVMGAGYYLASSMPETAARLSADDIADEIVAEALEGTDGTDARIGLIGEIGVSSDFTAEEEKSLRGAARAQVRTGLPLMVHLPGWFRLAHRVLDLVEEEGADLRHTVLCHMNPSHMDPVYQATLAQRGAFLEFDMIGMDFFYADQGVQCPSDDEVARAILGLADHGYLDRILLSHDVFVKMMLTRYGGNGYAFVTKHFLPRLRRHGLDDAALETLMVTNPRRVFDASIEGHHHHHH” as the sequence, how does the protein production read?
**A.** Its protein production is “not failed”.
